This is an account of results in article PMC2441792.

One may read the stoichiometry N as the number of molecules, sites or subunits per partner or assembly.

In experiment [1] the target is δ2K36A (Walker A mutant of protein δ) (Streptococcus pyogenes (plasmid pSM19035)). Description: SEC + cross-linking.
Experiment [2] addresses protein δ (ParA-Ib type Walker-box ATPase) of plasmid pSM19035, wild type (Streptococcus pyogenes (plasmid pSM19035)). Description: SEC + cross-linking.

In the case of “δ2K36A (Walker A mutant of protein δ) (enzyme)”, the stoichiometry N in experiment [1] came out at 2.

With “protein δ (ParA-Ib type Walker-box ATPase) of plasmid pSM19035, wild type (enzyme)”, the stoichiometry N in experiment [2] amounted to 2.
